Data on one molecule can be found in US20160083428A1 (CARMEL HAIFA UNIVERSITY ECONOMIC, published 2016).

Ends that are not written are not given here. * marks the point of attachment. Biotin = O=C1N[C@H]2[C@H](CS[C@H]2CCCCC(=O)*)N1

For this assay, the target named is eukaryotic elongation factor 2 (eEF2) (rat, UniProt P05197 2-858). Kind of assay: pull-down from rat brain homogenate with streptavidin agarose, Western blot.

B1: peptide 1 (Ac-RRQRYTPFPLGFE-Lys(Biotin)-NH2-OH), peptide derived from the G-H loop of ephrinA4 (peptide)
peptide: Ac-RRQRYTPFPLGFEK(Biotin)
modifications: not fully specified; printed as Ac-RRQRYTPFPLGFE-Lys(Biotin)-NH2-OH
notes: also called pep-ephrinA4; ephrinA4 peptide
On to B1, for which the binding result is on record as “no binding (tested: 20 micrograms)”.
